Biological target: T1, XTEN_AM875-hGH (human, UniProt P01241 27-217)
T1 construct: Negative control in the IL-1 receptor ELISA
Test: ELISA, plate-coated mouse IL-1R/Fc
Experimental: To evaluate the activity of the IL-1ra-containing XTEN fusion proteins, an ELISA based receptor binding assay was used. Here the wells of a Costar 3690 assay plate were coated overnight with 50 ng per well of mouse IL-1 receptor fused to Fc domain of human IgG (IL-1R/Fc, R&D Systems). Subsequently the wells were blocked with 3% BSA to prevent nonspecific interactions with the solid phase. After thoroughly washing the wells, a dilution series of either IL-1ra-XTEN_AM875, XTEN_AM875-IL-1ra, or IL-1ra (anakinra) was applied to the wells. The binding reaction was allowed to proceed for 2 hr at room temperature. Unbound Il-1ra was removed by repeated washing. The bound IL-1ra ad IL-1ra-XTEn fusions were detected with a biotinylated anti-human II-1ra antibody and a horseradish peroxidase-conjugated streptavidin. […] The absorbance of each well at 450 nm and 570 nm was recorded on a SpectrMax 384Plus spectrophotometer. The corrected absorbance signal (Abscorr=Abs₄₅₀ₙₘ−Abs₅₇₀ₙₘ) was plotted as a function of IL-1ra-XTEN or IL-1ra concentration to produce a binding isotherm as shown in FIG. 17.
To estimate the binding affinity of each fusion protein for the IL-1 receptor, the binding data was fit to a sigmoidal dose-response curve. From the fit of the data an EC50 (the concentration of IL-1ra or IL-1ra-XTEN at which the signal is half maximal) for each construct was determined.

T1 sequence (P01241 other isoform, or with tags, fused parts or gaps limits assumed): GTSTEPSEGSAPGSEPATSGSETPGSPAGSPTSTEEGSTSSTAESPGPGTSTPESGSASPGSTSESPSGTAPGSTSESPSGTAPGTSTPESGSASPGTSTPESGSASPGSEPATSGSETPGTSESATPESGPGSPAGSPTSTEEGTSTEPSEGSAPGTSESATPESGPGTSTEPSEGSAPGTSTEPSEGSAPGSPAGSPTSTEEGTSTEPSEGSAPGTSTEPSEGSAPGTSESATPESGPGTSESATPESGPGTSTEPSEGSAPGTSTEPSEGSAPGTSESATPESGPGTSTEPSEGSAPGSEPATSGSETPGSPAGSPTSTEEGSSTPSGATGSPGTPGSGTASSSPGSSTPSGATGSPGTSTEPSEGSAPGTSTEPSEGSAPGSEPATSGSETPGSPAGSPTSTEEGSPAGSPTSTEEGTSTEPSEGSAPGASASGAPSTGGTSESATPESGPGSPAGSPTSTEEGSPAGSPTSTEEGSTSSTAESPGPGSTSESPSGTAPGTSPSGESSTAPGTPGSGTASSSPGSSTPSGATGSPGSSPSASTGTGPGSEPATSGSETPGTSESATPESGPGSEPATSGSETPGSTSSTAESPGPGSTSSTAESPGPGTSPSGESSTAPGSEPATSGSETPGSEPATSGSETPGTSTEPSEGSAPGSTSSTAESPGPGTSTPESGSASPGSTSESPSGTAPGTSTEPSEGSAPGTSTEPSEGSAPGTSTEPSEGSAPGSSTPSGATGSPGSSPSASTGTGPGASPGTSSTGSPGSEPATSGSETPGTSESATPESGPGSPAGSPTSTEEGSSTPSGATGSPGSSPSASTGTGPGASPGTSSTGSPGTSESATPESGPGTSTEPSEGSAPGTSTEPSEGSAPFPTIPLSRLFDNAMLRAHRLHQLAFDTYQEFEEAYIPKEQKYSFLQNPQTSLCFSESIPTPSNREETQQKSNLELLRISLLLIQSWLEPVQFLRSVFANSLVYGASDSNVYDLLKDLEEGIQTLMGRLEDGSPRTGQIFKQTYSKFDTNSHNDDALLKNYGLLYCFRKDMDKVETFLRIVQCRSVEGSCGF

binding result: no binding
B1: mouse IL-1 receptor fused to Fc domain of human IgG (IL-1R/Fc, R&D Systems) (Fc fusion, UniProt P13504 20-338, looked up)
chain: LEIDVCTEYPNQIVLFLSVNEIDIRKCPLTPNKMHGDTIIWYKNDSKTPISADRDSRIHQQNEHLWFVPAKVEDSGYYYCIVRNSTYCLKTKVTVTVLENDPGLCYSTQATFPQRLHIAGDGSLVCPYVSYFKDENNELPEVQWYKNCKPLLLDNVSFFGVKDKLLVRNVAEEHRGDYICRMSYTFRGKQYPVTRVIQFITIDENKRDRPVILSPRNETIEADPGSMIQLICNVTGQFSDLVYWKWNGSEIEWNDPFLAEDYQFVEHPSTKRKYTLITTLNISEVKSQFYRYPFICVVKNTNIFESAHVQLIYPVPDFK
notes: Bought reagent, coated on the plate at 50 ng per well; not shown: Fc domain of human IgG

Reference: patent publication US20110312881A1 (AMUNIX, published 2011)
